{"source": "patent US20230192765A1", "about": "“PEPTIDES TARGETING SHP2 AND USES THEREOF” (UNIVERSITÀ DEGLI STUDI DI ROMA \"TOR VERGATA\", priority 2020, published 2023)", "key": {"[1]": {"type": "in vitro ADME", "details": "human serum, up to 90 minutes, 37° C.", "procedure": "(§1) The peptides were dissolved in DMSO (C=5 mg/mL). In eppendorf tubes, 1 mL of HEPES buffer (C = 25 mM, pH = 7.6) was temperature equilibrated at 37° C. before adding 250 µL of human serum and 20 µL of peptide solution; the reaction was followed for 90 minutes. At fixed intervals, 100 µL of the solution were withdrawn and added to 200 µL of absolute ethanol. These samples were kept on ice for 15 minutes, then centrifuged at 13,000 rpm for 5 minutes; the supernatant solutions were analyzed by HPLC and HPLC-MS with 20-60% B gradient in 20 minutes to follow the reaction. In parallel, samples containing peptide, buffer and ethanol only were also analyzed, too. A degradation resistance test was also conducted in DMEM (Dulbecco’s Modified Eagle Medium). The experimental conditions are similar to those described above; the reaction was followed for 72 hours. The enzymatic degradation resistance tests were followed by HPLC using a 5-50% B gradient in 20 minutes."}, "[2]": {"assay": "Peptide stability in DMEM", "type": "in vitro ADME", "details": "three days", "procedure": "as §1"}, "[3]": {"tested_on": "zebrafish embryos injected with Shp2a-D61G mRNA", "assay": "In vivo zebrafish rescue experiments, Shp2a-D61G embryos", "procedure": "(§2) One cell stage zebrafish embryos were injected with a mixture of 120 ng/µl of mRNA encoding either GFP-2A-Shp2-D61G or GFP-2A-Shp2-wt (as a control), with or without OP, at 0.3 µM, 3 µM and 5 µM concentration. Embryos were selected based on proper GFP expression and imaged at 11 hours post fertilization (hpf) in their lateral position using the Leica M165 FC stereomicroscope. Images were analyzed using ImageJ [Schneider 2012], by measuring the ratio of the major and minor axis from a minimum of 31 embryos. Statistical analysis was performed in GraphPad Prism, using the analysis of variance (ANOVA) complemented by Tukey’s honest significant difference test (Tukey’s HSD). To measure the survival of injected embryos, a minimum of 48 embryos per group were grown up to 4 days post fertilization (dpf) and counted at 1 dpf and 4 dpf. Survival curves were plotted using GraphPad Prism, and the differences between samples were determined using the Log-rank (Mantel-Cox) test."}, "[4]": {"tested_on": "zebrafish embryos injected with Shp2a-WT mRNA", "assay": "In vivo zebrafish experiments, Shp2a-WT embryos", "procedure": "as §2"}, "[5]": {"tested_on": "pathogenic variants of SHP2", "details": "literature [Sun 2018; LaRochelle 2018]; cited from earlier work"}, "NIH3T3 cells [6]": {"tested_on": "NIH3T3 cells", "assay": "Cell uptake experiments (FACS)", "type": "cell-based", "details": "TAT linked to the C-terminus", "procedure": "Cell uptake experiments were performed on NIH3T3 cells. About 200,000 cells were seeded on six-well plates and cultured in Dulbecco’s modified Eagle’s medium supplemented with 10% heat-inactivated fetal bovine serum (Gibco) and 1 % penicillin-streptomycin, at 37° C. with 5% CO2.\nTwo different strategies were followed. In a first set of experiments, the fluorescent peptide has been incubated with the cell-penetrating peptide (CPP) Pep-1. A Pep-1 stock solution was prepared by dissolving the peptide in ultrapure water. The fluorescent peptide was diluted in PBS from the DMSO stock solution. The peptides were mixed and incubated for 30 minutes at room temperature in a final volume of 400 µl. The conditions for cell delivery were optimized by investigating different cargo to CPP ratios. The mixture was then added to the cells, washed with PBS, together with 600 µl of serum-free medium (volumes for one well are reported). After one hour, 10% of fetal bovine serum (FBS) was added.\n(§3) Cells were incubated for different times and then washed, collected and stained with SYTOX blue (1 mM, Invitrogen™) to identify the viable population and the green fluorescence of CFP9W5 was recordered to measure peptide uptake. Data were analysed with Kaluza Analysis Software (Beckman Coulter).\nA second set of measurement was carried out using the TAT-conjugated peptide analog. […]"}, "NIH3T3 cells [7]": {"tested_on": "NIH3T3 cells", "assay": "Peptide toxicity in the cell uptake experiments (Sytox)", "type": "cell-based", "details": "all the concentrations tested", "procedure": "Cell viability in the FACS experiment was determined by using Sytox fluorescence.\nas §3"}, "[8]": {"target": "C-SH2 domain of SHP2 (residues 109-217), recombinant (human) (UniProt Q06124)", "assay": "fluorescence anisotropy direct binding"}, "[9]": {"target": "C-SH2 domain of SHP2 (residues 109-217), recombinant (human) (UniProt Q06124)", "assay": "fluorescence anisotropy direct binding, labelled peptide titrated with protein"}, "[10]": {"target": "N-SH2 domain of SHP2 (residues 2-111), recombinant (human) (UniProt Q06124)", "assay": "fluorescence anisotropy direct binding, labelled peptide titrated with protein"}, "N-SH2 domain of SHP2": {"target": "T1, N-SH2 domain of SHP2 (Homo sapiens, UniProt Q06124)", "T1 construct": "constructs of the N-SH2 (residues 2-111), C-SH2 (109-217) and PTP (212-528) domains; His6 (esaHis); made in house; host or cells: E. coli (DE3) Rosetta2", "T1 sequence (Q06124 2-111)": "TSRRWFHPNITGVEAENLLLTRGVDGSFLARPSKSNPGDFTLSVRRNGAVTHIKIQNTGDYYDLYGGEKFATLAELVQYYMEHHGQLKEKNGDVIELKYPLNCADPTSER", "assay": "Fluorescence anisotropy direct binding assay, N-SH2 domain", "details": "N-SH2 domain; direct binding", "experimental": "Anisotropy measurements were carried out using a Horiba Fluoromax 4 spectrofluorimeter.\nFor the binding assays, the requested peptide amount (1 nM or 0.1 nM) was diluted in buffer (HEPES 10 mM, NaCl 150 mM, EDTA 1 mM, TCEP 1 mM, fluorescence buffer henceforth) and its anisotropy signal was recorded. The peptide was then titrated with increasing protein amounts, until the anisotropy signal reached a plateau at its maximum value, or up to a protein concentration where protein aggregation and consequent light scattering affected the anisotropy values (usually above 1 µM). The measurements of CF-labeled peptides were carried out using an excitation wavelength of 470 nm and collecting the anisotropy values at an emission wavelength of 520 nm. A 495 nm emission filter was used. For the Cy3-labeled peptides, excitation and emission wavelengths of 520 and 560 nm were used.\nThe Kd values were obtained fitting the data with the following equation, described in Van der Weert 2011, which avoids the need for the commonly used (but often unjustified) approximation of the concentration of unbound protein with the total concentration:\nHere, [P]T and [L]T are the total protein and ligand concentrations, while r, ro and rmax are the anisotropy values at a given protein concentration, in the absence of protein and when the peptide is completely bound, respectively."}, "[11]": {"tested_on": "protein array of 97 human SH2 domains", "assay": "SH2 domain microarray", "type": "binding", "details": "peptide 0.5, 5.0, 50 nM", "procedure": "(§4) The microarray experiment was conducted by the Protein Array and Analysis Core at the MD Anderson Cancer Center (University of Texas, USA), as previously described [Roth 2019]. Briefly, a library of SH2 domains [Huang 2008] was expressed as GST fusion in E. coli and purified on glutathione-sepharose beads. The domains were spotted onto nitrocellulose-coated glass slides (Oncyte Avid slides, Grace Bio-Labs) using a pin arrayer [Espejo 2002]. Each domain was spotted in duplicate."}, "N-SH2 domain of SHP1": {"target": "T2, N-SH2 domain of SHP1 (Homo sapiens, UniProt P29350)", "T2 construct": "host or cells: E. coli", "T2 sequence (P29350 4-100 limits assumed)": "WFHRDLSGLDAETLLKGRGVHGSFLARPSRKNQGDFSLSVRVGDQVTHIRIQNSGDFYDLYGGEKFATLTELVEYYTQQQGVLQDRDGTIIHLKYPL", "assay": "SH2 domain microarray, SHP1", "type": "binding", "details": "peptide 0.5, 5.0, 50 nM", "procedure": "as §4"}, "[12]": {"tested_on": "T3, BTAM peptide (PTPNS1 bisphosphotyrosyl-containing motif, with 4 N-terminal G residues)", "T3 sequence": "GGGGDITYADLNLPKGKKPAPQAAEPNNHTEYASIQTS"}, "[13]": {"tested_on": "T4, EGFR Y1016 phosphopeptide (VDADEpYLIPQQ)", "T4 sequence": "VDADEYLIPQQ"}, "[14]": {"tested_on": "T5, GAB1 Y657 phosphopeptide (DKQVEpYLDLDL)", "T5 sequence": "DKQVEYLDLDL"}, "P8 (LN-pY-IDLDL)": {"tested_on": "T6, P8 (LN-pY-IDLDL)", "T6 sequence": "LNYIDLDL"}, "P8W5 (LN-pY-IDLDW)": {"tested_on": "T7, P8W5 (LN-pY-IDLDW)", "T7 sequence": "LNYIDLDW"}, "[15]": {"tested_on": "T8, p190A/RhoGAP Y1105 phosphopeptide (EEENIpYSVPHD)", "T8 sequence": "EEENIYSVPHD"}, "[16]": {"target": "T9, N-SH2 domain of SHP1, GST fusion on the SH2 domain microarray (human, UniProt P29350 1-106)", "T9 construct": "domain: N-SH2 domain; Array of 97 human SH2 domains; not shown: GST fusion partner", "T9 sequence (looked up)": "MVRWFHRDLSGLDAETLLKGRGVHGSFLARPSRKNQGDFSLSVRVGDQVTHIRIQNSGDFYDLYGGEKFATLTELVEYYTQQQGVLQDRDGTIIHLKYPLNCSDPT", "assay": "SH2 domain microarray (GST fusions on nitrocellulose slides), Cy3 fluorescence"}, "[17]": {"target": "T10, N-SH2 domain of SHP2 (residues 2-111), recombinant (human, UniProt Q06124 2-111)", "T10 construct": "range 2-111; Expressed in E. coli from pET-26b and purified on Ni-NTA", "T10 sequence (looked up)": "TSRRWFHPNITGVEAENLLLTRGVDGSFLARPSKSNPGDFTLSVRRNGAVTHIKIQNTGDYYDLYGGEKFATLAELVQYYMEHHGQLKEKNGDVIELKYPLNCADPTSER", "assay": "fluorescence anisotropy direct binding", "experimental": "For the binding assays, the requested peptide amount (1 nM or 0.1 nM) was diluted in buffer (HEPES 10 mM, NaCl 150 mM, EDTA 1 mM, TCEP 1 mM, fluorescence buffer henceforth) and its anisotropy signal was recorded. The peptide was then titrated with increasing protein amounts, until the anisotropy signal reached a plateau at its maximum value, or up to a protein concentration where protein aggregation and consequent light scattering affected the anisotropy values (usually above 1 µM). The measurements of CF-labeled peptides were carried out using an excitation wavelength of 470 nm and collecting the anisotropy values at an emission wavelength of 520 nm. […] For the Cy3-labeled peptides, excitation and emission wavelengths of 520 and 560 nm were used."}, "[18]": {"target": "T10, N-SH2 domain of SHP2 (residues 2-111), …", "assay": "fluorescence anisotropy direct binding, labelled peptide titrated with protein"}}, "note": "Where two headings read alike, the source gives them in different places. Primed or numbered codes have the meaning given here. [ ]: non-standard residue; d: D form. 5,6‑carboxyfluorescein″ = CF is 5,6 carboxyfluorescein; CF = 5,6-carboxyfluorescein, N-terminal label; pY = N[C@@H](Cc1ccc(OP(=O)(O)O)cc1)C(=O)O", "data": [{"molecule": "CC[C@H](C)[C@H](NC(=O)[C@H](Cc1ccc(C(F)(F)P(=O)(O)O)cc1)NC(=O)[C@H](CC(N)=O)NC(=O)[C@H](CC(C)C)NC(=O)CNC(C)=O)C(=O)N[C@@H](CC(=O)O)C(=O)N[C@@H](CC(C)C)C(=O)N[C@@H](CC(=O)O)C(=O)N[C@@H](Cc1c[nH]c2ccccc12)C(N)=O", "note": "[Peptide P9ND0W5, GLN-F2Pmp-IDLDW]", "values": [{"measurement": "degradation (HPLC)", "setting": "[1]", "result": "No significant degradation"}, {"measurement": "degradation (HPLC)", "setting": "[2]", "result": "No significant degradation"}, {"measurement": "rescue of the gastrulation phenotype", "setting": "[3]; 5 µM peptide", "result": "significant"}, {"measurement": "survival of embryos", "setting": "[3]; co-injection 0.3 µM, 3 µM and 5 µM, counted 1 dpf and 4 dpf", "result": "significant and dose dependent improvement"}, {"measurement": "lethality of embryos", "setting": "[4]; co-injection of 3 µM", "result": "not affected"}, {"measurement": "embryo shape at 11 hpf", "setting": "[4]; co-injection with 3 µM peptide", "result": "no impact on their shape"}]}, {"molecule": "CC1(N)CCN(c2cnc(-c3cccc(Cl)c3Cl)c(N)n2)CC1", "note": "[SHP099]", "values": [{"measurement": "activity in pathogenic variants of SHP2", "setting": "[5]", "result": "significantly impaired activity"}]}, {"molecule": "CF-GLN-pY-IDLDW-GRKKRRQRRR ({5,6‑carboxyfluorescein″}-GLN[pY]IDLDWGRKKRRQRRR-NH2) [CF-P9W5-TAT]", "values": [{"measurement": "cell uptake, covalent strategy", "setting": "NIH3T3 cells [6]", "result": "efficiently obtained"}, {"measurement": "cell killing", "setting": "NIH3T3 cells [7]", "result": "did not cause any cell killing"}]}, {"molecule": "CF-P9W5 (CF-GLN-pY-IDLDW) (peptide)", "values": [{"measurement": "fold lower affinity than for the N-SH2 domain", "setting": "[8]", "result": 1000, "unit": "fold"}, {"measurement": "Kd", "setting": "[9]", "result": 4200, "unit": "nM"}, {"measurement": "Kd", "setting": "[10]", "result": 4.6, "unit": "nM"}]}, {"molecule": "Cy3-GLN-pY-IDLDW [Cy3-P9W5]", "values": [{"measurement": "Kd", "setting": "N-SH2 domain of SHP2", "result": "23 ± 2", "unit": "nM"}, {"measurement": "binding on SH2 domain array", "setting": "[11]", "result": "significant binding was observed only with the N-SH2 domain of SHP2"}, {"measurement": "binding to N-SH2 domain of SHP1", "setting": "N-SH2 domain of SHP1", "result": "negligible"}]}, {"molecule": "SHP2Δ104 (SHP2 construct lacking the N-SH2 domain, residues 105-528)", "values": [{"measurement": "dephosphorylation of the phosphopeptide (malachite green phosphate release)", "setting": "[12]", "result": "dephosphorylation was indeed observed, although to a lower extent than for other phosphopeptides"}, {"measurement": "dephosphorylation of the phosphopeptide (malachite green phosphate release)", "setting": "[13]", "result": "dephosphorylation was indeed observed, although to a lower extent than for other phosphopeptides"}, {"measurement": "dephosphorylation of the phosphopeptide (malachite green phosphate release)", "setting": "[14]", "result": "dephosphorylation was indeed observed, although to a lower extent than for other phosphopeptides"}, {"measurement": "dephosphorylation of the phosphopeptide (malachite green phosphate release)", "setting": "P8 (LN-pY-IDLDL)", "result": "dephosphorylation was indeed observed, although to a lower extent than for other phosphopeptides"}, {"measurement": "dephosphorylation of the phosphopeptide (malachite green phosphate release)", "setting": "P8W5 (LN-pY-IDLDW)", "result": "dephosphorylation was indeed observed, although to a lower extent than for other phosphopeptides"}, {"measurement": "dephosphorylation of the phosphopeptide (malachite green phosphate release)", "setting": "[15]", "result": "dephosphorylation was indeed observed, although to a lower extent than for other phosphopeptides"}]}, {"molecule": "XGLNYIDLDW (phosphotyrosine (pY) at position 4; N-terminal Cyanine 3 carboxylic acid (Cy3); C-terminal amide)", "note": "[Cy3-P9W5 (Cy3-GLN-pY-IDLDW)]", "values": [{"measurement": "Kd", "setting": "[10]", "result": 23, "unit": "nM"}, {"measurement": "binding result", "setting": "[16]", "result": "no binding (tested: peptide at 0.5, 5.0 and 50 nM)"}]}, {"molecule": "{CF}-GLNYIDLDL-NH2", "note": "[CF-P9Y0 (CF-GLN-Y-IDLDL), unphosphorylated analog of the labeled IRS-1 pY1172 peptide]", "values": [{"measurement": "fold lower affinity than the phosphorylated peptide CF-P9", "setting": "[17]", "result": "~100", "unit": "fold"}, {"measurement": "Kd", "setting": "[18]", "result": 6600, "unit": "nM"}]}]}
